Reference: publication PMC12255766 (2025)

B1: Venus::LAT-1 (C. elegans latrophilin homolog LAT-1 fused to Venus) [C. elegans] / Nluc::LAG-2 (C. elegans DSL protein/Notch ligand LAG-2 fused to Nanoluciferase) [C. elegans] (parent complex)
chain 1: SNKPTTDESGTISHTICDGEAAELSCPAGKVISIVLGNYGRFSVAVCLPDNDIVPSNINCQNHKTKSILEKKCNGDSMCYFTVDKKTFTEDPCPNTPKYLEVKYNCVVPATTTTTTTTTSTTTTDSSLIVDEEEEAQKDALNSDVIKPVKKKEDVFCSATNRRGVNWQNTKSGTTSSAPCPEGSSGKQLWACTEEGQWLTEFPNSAGCESNWISSRNSVLSGVISSEDVSGLPEFLRNLGSETRRPMVGGDLPKVLHLLEKTVNVIAEESWAYQHLPLSNKGAVEVMNYMLRNQEIWGSWDVTKRKEFASRFILAAEKAMVASAKGMMTSAESNVIVQPAITVEISHKIKMSSQPTDYILFPSAALWNGQNVDNVNIPRDAILKINKDETQVFFSSFDNLGAQMTPSDVTVAIAGTDQTEVRKRRVVSRIVGASLIENGKERRVENLTQPVRITFYHKESSVRHLSNPTCVWWNHHELKWKPSGCKLSYHNKTMTSCDCTHLTHFAVLMDVRGHDLNEIDQTLLTLLTYVGCIISIICLLLTFFAYLIFSRNGGDRVFIHENLCLSLAIAEITFLAGITRTEDSLQCGIIAVALMYMFLSALTWMLLEGYHIHRMLTEVFPSDPRRFTYLLVGYIPPAIITLVAYLYNSDGFGTPDHCWLSTQNNFIWFFAGPACFIFCANSLVLVKTLCTVYQHTSGGYLPCRHDVDSGRSIRNWVKGSLALASLLGVTWIFGLFWVEDSRSIVMAYVFTISNSLQGLFIFLFHVVFAEKMRKDVGHWMYRRGCGGSSNSSPNHKRHNVQRDLMSPGVNSSTGSDFLYNTNDKYLTNSDTTNRLVYNGIMNHPNQMSVYQQHPHHQIYEQQPGTYDYATIAYGDMMPGHRVAAPPAYQRLAVAEGRYGSQHQLYQGWHHRPPPEFSPPPPPLSTGPPNSRHYGTGSSGRRPPSSKMSDDSAYSDGSSSMLTTEVTPQGQTVLRIDLNKPSMYCQDL
chain 2: QARVEVHQEFISSKRVSVRFEIVTESHSPNRPVTFDLFPRGPKTNIILLDTFNPVFNFSIQLVQPFTGQPLGDRIYRKVQFSGTNQPWINDTFTTTSGISLSVATEVTCARNYFGNRCENFCDAHLAKAARKRCDAMGRLRCDIGWMGPHCGQAVDPRKCSCENDGICVSSMIHPSQPNQTSSNEQLICECTNGFTGTRCEIFGFNQFQLTAPRPDACSVKDACLNGAKCFPNGPKVFCSCAVGFIGEFCEISLTTTTPTTVEITVSTSGYSSAVYITVALFVIFSIIIGCFKYKFKPMRQQALARGQVPEPYKMPETKSMLIDPEASEAQKKVFTIEGSVQKIDEEVRYTSAPRKYESNNEYAVIQKSTPPPPSLSPPSIPACHYV

Variants of: B1
Assay: NanoBRET; HEK293 cells; Venus::LAT-1 acceptor, Nluc::LAG-2 donor; parent: 0.0042; read off a plot

screen value | Variant
~0.0053 | chain 1 L36A, chain 1 F42A, chain 1 D50A, chain 1 D52A, chain 1 V54A
~0.0025 | chain 1 Q354A, chain 1 P355A, chain 1 D357A, chain 1 Y358A, chain 1 L360A, chain 1 L366A, chain 1 W367A
